This is an account of results in patent US20200277392A1 (Hoffmann-La Roche, published 2020).

In experiment [1] the target is T1, human OX40 on cells (human, UniProt P43489 29-277).
T1 construct: also called CD134; OX40+ Cells
T1 sequence: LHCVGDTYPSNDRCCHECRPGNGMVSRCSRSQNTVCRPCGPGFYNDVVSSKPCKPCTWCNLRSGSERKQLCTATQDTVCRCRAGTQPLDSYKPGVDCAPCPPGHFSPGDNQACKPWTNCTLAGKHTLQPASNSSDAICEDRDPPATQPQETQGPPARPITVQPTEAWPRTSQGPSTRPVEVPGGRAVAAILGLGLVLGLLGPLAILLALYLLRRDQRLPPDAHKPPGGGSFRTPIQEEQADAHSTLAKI
Briefly: flow cytometry on OX40+ cells (activated human PBMC). The method, then: (§1) For labeling, cells were harvested, washed with pre-warmed (37° C.) DPBS and adjusted to a cell density of 1×10⁷ cells/mL in DPBS. eFluor670 cell proliferation dye (eBioscience, Cat.-No. 65-0840-85) was added to the suspension of naïve human PBMC at a final concentration of […] and a final cell density of 0.5×10⁷ cells/mL in DPBS. Cells were then incubated for 10 min at room temperature in the dark. To stop the labeling reaction, 4 mL heat inactivated FBS was added and cells were washed three times with T cell medium. A 2:1 mixture of 1×10⁵ resting eFluor670 labeled human PBMC and 0.5×10⁵ unlabeled activated human PBMC were then added to each well of round-bottomed suspension cell 96-well plates (Greiner bio-one, cellstar, Cat. No. 650185).
(§2) Cells were stained for 120 minutes at 4° C. in the dark in 50 μL/well 4° C. FACS buffer containing different amounts of the indicated antigen binding molecules. After three washes with 4° C. FACS buffer, cells were stained for 45 minutes at 4° C. in the dark in 25 μL/well 4° C. FACS buffer containing a mixture of fluorescently labeled anti-human CD4 (clone RPA-T4, mouse IgG1 k, BioLegend, Cat.-No. 300532), anti-human CD8 (clone RPa-T8, mouse IgGlk, BioLegend, Cat.-No. 3010441) and Fluorescein isothiocyanate (FITC)-conjugated AffiniPure anti-human IgG Fcγ-fragment-specific goat IgG F(ab′)₂ fragment (Jackson ImmunoResearch, Cat.-No. 109-096-098).
Cells were then resuspended in […] FACS-buffer containing 0.2 μg/mL DAPI (Santa Cruz Biotec, Cat. No. Sc-3598) and acquired the same day using 5-laser LSR-Fortessa (BD Bioscience with DIVA software).
(In flow cytometry, cells or beads pass a laser one at a time.)

Experiment [2] addresses T1, human OX40 on cells. Briefly: flow cytometry on activated human PBMC, gated on CD8+ T cells; FITC anti-human IgG secondary; MFI baseline corrected. As to the method:
as §1
as §2, with “109-096-098). […]” for “109-096-098).”

The target in experiment [3] is T2, mouse TnC with C-terminal Avi- and His-tags (mouse, biotinylated at the C-terminal Avi-tag).
T2 construct: the N-terminal fn5 and C-terminal fn6 parts look like the human ones; also called muTnC; murine TnC
T2 chain: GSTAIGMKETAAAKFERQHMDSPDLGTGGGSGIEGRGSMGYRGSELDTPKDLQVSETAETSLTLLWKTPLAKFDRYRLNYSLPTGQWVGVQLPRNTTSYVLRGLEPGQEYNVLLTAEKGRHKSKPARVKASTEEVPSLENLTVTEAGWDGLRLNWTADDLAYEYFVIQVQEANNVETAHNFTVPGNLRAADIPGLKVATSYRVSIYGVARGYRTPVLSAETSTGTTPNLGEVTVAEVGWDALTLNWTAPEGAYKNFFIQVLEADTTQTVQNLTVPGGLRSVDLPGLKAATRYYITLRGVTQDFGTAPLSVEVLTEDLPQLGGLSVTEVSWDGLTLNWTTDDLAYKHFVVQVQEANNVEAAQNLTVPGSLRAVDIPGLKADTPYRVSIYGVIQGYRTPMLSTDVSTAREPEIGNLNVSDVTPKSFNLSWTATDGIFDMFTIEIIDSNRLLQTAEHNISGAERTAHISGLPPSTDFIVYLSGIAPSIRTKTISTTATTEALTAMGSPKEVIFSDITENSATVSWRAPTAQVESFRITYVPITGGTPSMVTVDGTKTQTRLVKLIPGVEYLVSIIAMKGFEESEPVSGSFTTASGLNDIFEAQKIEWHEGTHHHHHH
The experiment in a line: SPR Biacore T200, biotinylated TnC on SA chip, bispecific as analyte, 1:1 fit, apparent KD (bivalent binding). As to the method:
(§3) The capacity of the bispecific constructs to bind human, murine and cynomolgus TnC was analysed by surface plasmon resonance (SPR). All SPR experiments were performed on a Biacore T200 at 25° C. with HBS-EP as running buffer (0.01 M HEPES pH 7.4, 0.15 M NaCl, 3 mM EDTA, 0.005% Surfactant P20, Biacore, Freiburg/Germany).
(§4) Biotinylated human, murine or cynomolgus TnC molecules were immobilised on a SA chip to reach an immobilization level of 10 resonance units (RU).
(§5) Following immobilisation, the bispecific molecules or control molecules were immediately passed over the chip surface at concentrations ranging from 0.05-50 nM, at a flow rate of 30 μL/minute for 120 seconds and a dissociation phase of 180 seconds. The surface was regenerated using 10 mM glycine pH2.1. Bulk refractive index differences were corrected for by subtracting the response obtained in a reference flow cell, where no TnC was immobilized. Affinity/Avidity was determined under these experimental conditions using the Langmuir 1:1 curve fitting. For bivalent binding the same 1:1 fitting was used leading to an apparent KD value.
(In general: In SPR one partner is held on a chip, and binding of the other changes the refractive index at the surface.)

Experiment [4] deals with T3, cynomolgus TnC with C-terminal Avi- and His-tags (cynomolgus, biotinylated at the C-terminal Avi-tag).
T3 construct: also called cynoTnC; cyno TnC
T3 chain: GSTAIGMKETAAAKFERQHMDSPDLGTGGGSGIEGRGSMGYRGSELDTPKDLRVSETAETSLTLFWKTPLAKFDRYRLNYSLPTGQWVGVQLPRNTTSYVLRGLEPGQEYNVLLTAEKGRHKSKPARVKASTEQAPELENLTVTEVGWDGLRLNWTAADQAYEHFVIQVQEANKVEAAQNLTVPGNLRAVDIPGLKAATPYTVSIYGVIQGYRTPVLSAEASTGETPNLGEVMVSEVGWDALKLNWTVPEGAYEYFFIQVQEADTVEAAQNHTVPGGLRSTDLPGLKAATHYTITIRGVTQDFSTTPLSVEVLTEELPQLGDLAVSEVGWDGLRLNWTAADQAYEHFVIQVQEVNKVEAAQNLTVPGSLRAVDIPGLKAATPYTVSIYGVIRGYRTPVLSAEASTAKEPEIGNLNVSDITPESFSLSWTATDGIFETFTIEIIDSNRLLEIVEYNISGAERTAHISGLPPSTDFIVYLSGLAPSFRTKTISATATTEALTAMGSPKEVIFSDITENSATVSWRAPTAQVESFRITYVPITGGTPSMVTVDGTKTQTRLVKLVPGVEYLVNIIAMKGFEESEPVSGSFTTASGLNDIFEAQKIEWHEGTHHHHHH
Described as above. The method, then: as §3, §4, §5

The target in experiment [5] is T4, human OX40 Fc(kih), monomeric Fc-linked human OX40 antigen ECD (human, UniProt P0DOX5 223-449 = IgG part).
T4 construct: Heterodimer of one OX40 ECD (aa 29-214)-AcTEV-Fc knob-Avi chain and one Fc hole chain; Biotinylated at the Avi tag for phage selection and ELISA; also called recombinant OX40 Fc (kih) receptor; biotinylated human OX40
Briefly: SPR (Biacore T200, 25 °C): bispecific held on immobilised human TnC; human OX40 Fc(kih) at 250 nM injected for 90 s as analyte 2. As to the method: All SPR experiments were performed on a Biacore T200 at 25° C. with HBS-EP as running buffer (0.01 M HEPES pH 7.4, 0.15 M NaCl, 3 mM EDTA, 0.005% Surfactant P20, Biacore, Freiburg/Germany).
Biotinylated human TnC was directly coupled to a flow cell of a streptavidin (SA) sensor chip. Immobilization levels up to 1000 resonance units (RU) were used.
Bulk refractive index differences were corrected for by subtracting the response obtained in a reference flow cell, where no protein was immobilized.

For experiment [6], the target named is T5, human TnC with C-terminal Avi- and His-tags (human, UniProt P24821 984-1798, biotinylated at the C-terminal Avi-tag).
T5 construct: also called huTnC; biotinylated human TnC
T5 sequence: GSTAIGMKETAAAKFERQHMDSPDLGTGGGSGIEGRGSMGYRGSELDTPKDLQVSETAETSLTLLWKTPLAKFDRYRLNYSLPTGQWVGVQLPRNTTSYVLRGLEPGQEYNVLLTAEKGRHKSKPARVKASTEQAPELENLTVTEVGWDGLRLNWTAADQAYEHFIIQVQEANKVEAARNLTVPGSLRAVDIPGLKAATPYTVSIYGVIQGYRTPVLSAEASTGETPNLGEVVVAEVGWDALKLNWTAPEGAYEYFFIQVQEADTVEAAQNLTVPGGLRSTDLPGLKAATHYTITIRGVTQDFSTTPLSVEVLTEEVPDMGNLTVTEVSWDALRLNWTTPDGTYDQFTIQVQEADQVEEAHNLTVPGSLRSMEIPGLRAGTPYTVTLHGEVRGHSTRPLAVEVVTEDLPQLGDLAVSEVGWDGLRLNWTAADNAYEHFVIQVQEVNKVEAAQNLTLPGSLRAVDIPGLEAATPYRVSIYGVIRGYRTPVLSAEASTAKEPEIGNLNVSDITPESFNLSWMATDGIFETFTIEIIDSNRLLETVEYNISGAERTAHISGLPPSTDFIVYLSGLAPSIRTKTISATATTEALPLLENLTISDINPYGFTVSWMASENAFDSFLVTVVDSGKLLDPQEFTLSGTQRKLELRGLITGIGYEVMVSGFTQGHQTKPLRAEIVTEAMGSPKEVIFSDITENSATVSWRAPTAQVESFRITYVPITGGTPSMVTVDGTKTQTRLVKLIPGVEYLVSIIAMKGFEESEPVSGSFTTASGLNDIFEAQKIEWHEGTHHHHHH
Briefly: SPR Biacore T200, biotinylated TnC on SA chip, bispecific as analyte, 1:1 fit, apparent KD (bivalent binding). As to the method: as §3, §4, §5

B1: 49B4/TnC 18D4 P329GLALA 4 + 2 (ID8035) (bispecific antibody, human IgG1, kappa, L234A L235A)
heavy: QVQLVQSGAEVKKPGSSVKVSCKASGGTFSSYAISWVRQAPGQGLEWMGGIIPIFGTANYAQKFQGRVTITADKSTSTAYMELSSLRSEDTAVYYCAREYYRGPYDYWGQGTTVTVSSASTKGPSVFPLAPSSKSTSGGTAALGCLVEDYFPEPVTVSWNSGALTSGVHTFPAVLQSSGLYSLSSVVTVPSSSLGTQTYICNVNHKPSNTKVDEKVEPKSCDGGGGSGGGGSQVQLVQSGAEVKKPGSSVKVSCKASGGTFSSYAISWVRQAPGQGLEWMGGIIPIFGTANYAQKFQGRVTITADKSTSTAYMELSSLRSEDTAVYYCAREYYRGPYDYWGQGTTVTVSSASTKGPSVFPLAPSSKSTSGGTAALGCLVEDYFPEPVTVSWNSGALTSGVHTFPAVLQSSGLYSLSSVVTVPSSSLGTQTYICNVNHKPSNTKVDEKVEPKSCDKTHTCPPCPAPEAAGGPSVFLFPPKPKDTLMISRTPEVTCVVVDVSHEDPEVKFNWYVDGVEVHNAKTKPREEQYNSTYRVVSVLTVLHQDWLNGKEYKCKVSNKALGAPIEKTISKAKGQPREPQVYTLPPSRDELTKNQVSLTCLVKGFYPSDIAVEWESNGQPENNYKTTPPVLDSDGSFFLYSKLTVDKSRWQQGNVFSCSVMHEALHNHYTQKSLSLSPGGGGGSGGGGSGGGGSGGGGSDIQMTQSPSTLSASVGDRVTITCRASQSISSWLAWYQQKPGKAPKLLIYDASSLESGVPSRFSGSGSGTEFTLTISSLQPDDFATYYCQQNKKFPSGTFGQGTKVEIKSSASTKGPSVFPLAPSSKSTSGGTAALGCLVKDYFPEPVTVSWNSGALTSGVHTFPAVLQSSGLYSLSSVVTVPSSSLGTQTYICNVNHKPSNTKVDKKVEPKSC
light 1: DIQMTQSPSTLSASVGDRVTITCRASQSISSWLAWYQQKPGKAPKLLIYDASSLESGVPSRFSGSGSGTEFTLTISSLQPDDFATYYCQQYSSQPYTFGQGTKVEIKRTVAAPSVFIFPPSDRKLKSGTASVVCLLNNFYPREAKVQWKVDNALQSGNSQESVTEQDSKDSTYSLSSTLTLSKADYEKHKVYACEVTHQGLSSPVTKSFNRGEC
light 2: QVQLVQSGAEVKKPGSSVKVSCKASGGTFSSYAISWVRQAPGQGLEWMGGIIPIFGTANYAQKFQGRVTITADKSTSTAYMELSSLRSEDTAVYYCAKGNFYGGLDYWGQGTTVTVSSASVAAPSVFIFPPSDEQLKSGTASVVCLLNNFYPREAKVQWKVDNALQSGNSQESVTEQDSKDSTYSLSSTLTLSKADYEKHKVYACEVTHQGLSSPVTKSFNRGEC
notes: huIgG1 P329G LALA; also called 49B4/18D4 4 + 2; 4 + 2 TnC (18D4)
In the case of B1, in the experiment with human OX40 on cells [1], the EC50 stood at 0.08 nM. In the experiment with human OX40 on cells [2], the concentration for a half-maximal effect (EC50 (read off the curve)) was approximately 0.1 nM. The values for the Kd in experiment [3] and in experiment [4] were 0.65 nM and 0.4 nM, respectively. Also, the binding result in experiment [5] is “binds”.

B2: 49B4/TnC 11C7 P329GLALA 2 + 2 (ID7215) (bispecific antibody, human IgG1, kappa, L234A L235A)
heavy: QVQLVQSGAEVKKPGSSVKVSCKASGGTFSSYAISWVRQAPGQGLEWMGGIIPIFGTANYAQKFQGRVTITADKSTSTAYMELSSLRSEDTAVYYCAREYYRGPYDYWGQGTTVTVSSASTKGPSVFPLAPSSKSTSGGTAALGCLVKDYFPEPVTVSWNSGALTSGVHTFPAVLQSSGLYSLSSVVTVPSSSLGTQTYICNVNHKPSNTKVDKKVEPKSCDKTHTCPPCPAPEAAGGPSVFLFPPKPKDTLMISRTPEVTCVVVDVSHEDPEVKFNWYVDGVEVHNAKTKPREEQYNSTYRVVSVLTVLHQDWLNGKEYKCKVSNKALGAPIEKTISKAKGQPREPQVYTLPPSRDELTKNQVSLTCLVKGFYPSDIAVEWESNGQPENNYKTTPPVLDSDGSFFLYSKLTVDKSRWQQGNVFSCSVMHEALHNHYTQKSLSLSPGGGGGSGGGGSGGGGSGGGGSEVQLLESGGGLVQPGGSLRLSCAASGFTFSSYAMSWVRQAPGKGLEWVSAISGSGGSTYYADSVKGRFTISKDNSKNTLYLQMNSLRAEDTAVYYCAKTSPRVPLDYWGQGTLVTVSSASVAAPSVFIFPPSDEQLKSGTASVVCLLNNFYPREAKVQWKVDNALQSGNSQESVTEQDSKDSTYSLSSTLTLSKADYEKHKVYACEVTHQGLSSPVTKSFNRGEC
light 1: DIQMTQSPSTLSASVGDRVTITCRASQSISSWLAWYQQKPGKAPKLLIYDASSLESGVPSRFSGSGSGTEFTLTISSLQPDDFATYYCQQYSSQPYTFGQGTKVEIKRTVAAPSVFIFPPSDEQLKSGTASVVCLLNNFYPREAKVQWKVDNALQSGNSQESVTEQDSKDSTYSLSSTLTLSKADYEKHKVYACEVTHQGLSSPVTKSFNRGEC
light 2: SSELTQDPAVSVALGQTVRVTCQGDSLRSYYASWYQQKPGQAPVLVIYGKNNRPSGIPDRFSGSSSGNTASLTITGAQAEDEADYYCNSINSTRNEVFGGGTKLTVLSSASTKGPSVFPLAPSSKSTSGGTAALGCLVKDYFPEPVTVSWNSGALTSGVHTFPAVLQSSGLYSLSSVVTVPSSSLGTQTYICNVNHKPSNTKVDKKVEPKSCD
notes: huIgG1 P329G LALA; 49B4 VHCH1-Fc-(G4S)4-11C7 VHCL heavy chain, 49B4 VLCL light chain, 11C7 VLCH1 crossed light chain; also called 2 + 2 (49B4/11C7); 49B4/11C7 2 + 2
In the experiment with human OX40 on cells [1], B2 gave an EC50 of 4.22 nM. Also, the Kd in experiment [6] came out at 5.85 nM. In addition, in experiment [5], the binding result is listed as “binds”.

B3: 49B4/TnC 18D4 P329GLALA 2 + 2 (ID7216) (bispecific antibody, human IgG1, kappa, L234A L235A)
heavy: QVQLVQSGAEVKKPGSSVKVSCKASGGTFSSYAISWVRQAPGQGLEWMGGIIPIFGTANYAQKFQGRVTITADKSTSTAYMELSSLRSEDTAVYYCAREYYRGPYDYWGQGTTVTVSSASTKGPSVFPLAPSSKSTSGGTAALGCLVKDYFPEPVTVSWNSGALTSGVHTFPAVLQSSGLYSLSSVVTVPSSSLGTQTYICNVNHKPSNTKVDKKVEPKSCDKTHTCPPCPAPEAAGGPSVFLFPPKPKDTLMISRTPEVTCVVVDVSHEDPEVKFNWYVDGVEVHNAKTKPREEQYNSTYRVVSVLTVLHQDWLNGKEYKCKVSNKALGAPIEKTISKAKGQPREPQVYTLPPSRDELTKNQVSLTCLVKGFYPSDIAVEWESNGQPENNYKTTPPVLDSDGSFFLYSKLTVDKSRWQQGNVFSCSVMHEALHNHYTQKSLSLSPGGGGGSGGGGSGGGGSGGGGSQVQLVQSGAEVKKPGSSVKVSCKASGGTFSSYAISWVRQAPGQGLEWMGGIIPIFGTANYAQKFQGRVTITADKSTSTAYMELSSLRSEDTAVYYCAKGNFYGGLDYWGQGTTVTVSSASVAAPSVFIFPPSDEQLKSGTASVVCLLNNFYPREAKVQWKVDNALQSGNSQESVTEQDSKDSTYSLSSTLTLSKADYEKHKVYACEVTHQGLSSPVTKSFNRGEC
light 1: DIQMTQSPSTLSASVGDRVTITCRASQSISSWLAWYQQKPGKAPKLLIYDASSLESGVPSRFSGSGSGTEFTLTISSLQPDDFATYYCQQYSSQPYTFGQGTKVEIKRTVAAPSVFIFPPSDEQLKSGTASVVCLLNNFYPREAKVQWKVDNALQSGNSQESVTEQDSKDSTYSLSSTLTLSKADYEKHKVYACEVTHQGLSSPVTKSFNRGEC
light 2: DIQMTQSPSTLSASVGDRVTITCRASQSISSWLAWYQQKPGKAPKLLIYDASSLESGVPSRFSGSGSGTEFTLTISSLQPDDFATYYCQQNKKFPSGTFGQGTKVEIKSSASTKGPSVFPLAPSSKSTSGGTAALGCLVKDYFPEPVTVSWNSGALTSGVHTFPAVLQSSGLYSLSSVVTVPSSSLGTQTYICNVNHKPSNTKVDKKVEPKSCD
notes: huIgG1 P329G LALA; 49B4 VHCH1-Fc-(G4S)4-18D4 VHCL heavy chain, 49B4 VLCL light chain, 18D4 VLCH1 crossed light chain; also called 2 + 2 (49B4/18D4); 49B4/18D4 2 + 2
B3: the midpoint of the response with human OX40 on cells [1], the EC50, lay at 6.59 nM. Moreover, the Kd in experiment [3] was 0.3 nM; in experiment [4], 0.28 nM. The binding result in experiment [5] was “binds”.

One may read the EC50 as the midpoint of the concentration-response curve. For orientation: EC50 (read off the curve) means the concentration needed to bring the measured effect to its halfway point. A low value points to an effect from little substance.
